“And” between values parts separate entries of the source, which are not always exact repeats. Equal entries are not always repeated.
Tests used:
[1] = biological target: T1, mouse serum albumin (MSA) (Mus musculus, UniProt P07724); test: Isothermal titration calorimetry of ABD-Dox with MSA; type: binding; settings: ITC, 37° C., PBS
T1 construct: purchased Sigma-Aldrich (St. Louis, MO)
Description: The gel was stained with SimplyBlue stain according to the manufacturer's instructions and imaged using the Gel Doc imaging system (Bio-Rad, Hercules, CA). Isothermal titration calorimetry was done using a standard volume Nano ITC from TA instruments (Lindon, Utah). […] The calorimetric data were analyzed by NanoAnalyze software (TA instruments, Lindon, UT) and were fit to an independent binding site model to compute the thermodynamic parameters including dissociation constant (KD), binding stoichiometry (n), enthalpy (ΔH), and entropy (ΔS).

[2] = test system: C26 murine colon carcinoma cells; test: In vitro cytotoxicity (MTS, 72 h) C26; type: cell-based
Description: (§1) In vitro cytotoxicity C26 murine colon carcinoma cells and three different pancreatic cancer cell lines, BxPC-3, AsPC-1, and MIA PaCa-2, were used to study the in vitro cytotoxicity of ABD-DOX and Dox. Cells were cultured and grown as monolayers at 37° C. with C02 in a humidified incubator and were passaged at ˜80% confluency using 0.05% trypsin-EDTA (Invitrogen, Carlsbad, CA). C26, BxPC-3, AsPC-1, and MIA PaCa-2 cells were seeded in 96-well plates (5,000 cells/well) and incubated overnight. Three-fold serial dilutions of drug were then added to the wells in triplicate and also to control wells (media with no cells) to correct for the background Dox absorbance. After 72 h treatment, 20 μL MTS reagent was added to each well and was incubated for 3 h at 37° C., and the absorbance at 490 nm was measured using a Victor3 plate reader (Perkin Elmer, Boston, MA). Cell viability (%) was defined as the percentage of the absorbance of the drug-treated cells relative to buffer-treated cells and IC50 values were determined using logistic non-linear regression analysis with GraphPad Prism software. The IC50 was defined as the Dox Equiv. concentration of formulations resulting in 50% growth inhibition compared with a negative control, buffer-treated cells.

[3] = test system: BxPC-3 pancreatic cancer cells; test: In vitro cytotoxicity (MTS, 72 h) BxPC-3; type: cell-based, human; settings: 72 h incubation, Dox Equiv. concentration
Description: as §1

[4] = Tissue biodistribution in C26 tumor-bearing BALB/c mice; type: in vivo
Description: The tissue concentration of Dox.

T1 sequence (P07724 25-608): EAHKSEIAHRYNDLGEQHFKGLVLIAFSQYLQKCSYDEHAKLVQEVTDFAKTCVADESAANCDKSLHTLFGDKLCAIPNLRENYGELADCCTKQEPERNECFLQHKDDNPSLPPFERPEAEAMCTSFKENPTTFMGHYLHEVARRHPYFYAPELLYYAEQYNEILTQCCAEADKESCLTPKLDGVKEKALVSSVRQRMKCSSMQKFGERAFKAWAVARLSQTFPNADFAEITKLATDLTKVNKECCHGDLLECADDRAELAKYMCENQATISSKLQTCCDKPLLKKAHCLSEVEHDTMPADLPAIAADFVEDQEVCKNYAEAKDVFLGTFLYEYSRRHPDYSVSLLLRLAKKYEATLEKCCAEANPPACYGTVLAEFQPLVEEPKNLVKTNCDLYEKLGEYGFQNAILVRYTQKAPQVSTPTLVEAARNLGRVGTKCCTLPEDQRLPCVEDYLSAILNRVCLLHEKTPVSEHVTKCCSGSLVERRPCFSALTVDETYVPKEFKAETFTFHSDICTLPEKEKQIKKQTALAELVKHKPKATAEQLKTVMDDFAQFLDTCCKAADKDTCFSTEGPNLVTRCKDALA

ABD-Dox (GLAEAKVLANRELDKYGVSDYYKNLINNAKTVEGVKALIDEILAALPCGGCGGCGGCGG)
ΔH [1]: -4.45 kcal/mol | ΔS [1]: 76.6 Jmol^−1K^−1 | n (binding stoichiometry) ([1]; independent binding site model): 0.94 and 0.9 | IC50 ([2]; 72 h incubation, Dox Equiv. concentration): 6.4 µM and 6.43 µM | in vitro cytotoxicity, fold lower than free Dox ([2]; C26 and MIA PaCa-2 cells): 10-30 fold | IC50 [3]: 8.9 µM | AUC in other tissues compared to free Dox ([4]; 2 to 72 h): No significant difference | AUC in the spleen, lower than free Dox ([4]; 2 to 72 h): ~50% | AUC in the tumor, fold greater than free Dox ([4]; 2 to 72 h): 16 fold | concentration in kidneys compared to free Dox ([4]; 2 h): lower concentration | concentration in liver compared to free Dox ([4]; 2 h): lower concentration | concentration in muscle compared to free Dox ([4]; 2 h): lower concentration | concentration in spleen compared to free Dox ([4]; 2 h): lower concentration | concentration in heart compared to free Dox ([4]; 24 h): higher concentration | concentration in liver compared to free Dox ([4]; 24 h): higher concentration | concentration in lungs compared to free Dox ([4]; 24 h): higher concentration | concentration in muscle compared to free Dox ([4]; 24 h): higher concentration | concentration in spleen compared to free Dox ([4]; 24 h): lower concentration | accumulation in kidneys compared to free Dox ([4]; 72 h): higher | accumulation in liver compared to free Dox ([4]; 72 h): higher | accumulation in lungs compared to free Dox ([4]; 72 h): higher | accumulation in muscle compared to free Dox ([4]; 72 h): higher | tumor accumulation, fold greater than free Dox ([4]; 72 h): ~120 fold
